# Test results published in doi:10.1101/2025.07.07.663466.
# B1: recombinant human mitochondrial Hsp60, P10809 27-573 (natural protein)
# chain: AKDVKFGADARALMLQGVDLLADAVAVTMGPKGRTVIIEQSWGSPKVTKDGVTVAKSIDLKDKYKNIGAKLVQDVANNTNEEAGDGTTTATVLARSIAKEGFEKISKGANPVEIRRGVMLAVDAVIAELKKQSKPVTTPEEIAQVATISANGDKEIGNIISDAMKKVGRKGVITVKDGKTLNDELEIIEGMKFDRGYISPYFINTSKGQKCEFQDAYVLLSEKKISSIQSIVPALEIANAHRKPLVIIAEDVDGEALSTLVLNRLKVGLQVVAVKAPGFGDNRKNQLKDMAIATGGAVFGEEGLTLNLEDVQPHDLGKVGEVIVTKDDAMLLKGKGDKAQIEKRIQEIIEQLDVTTSEYEKEKLNERLAKLSDGVAVLKVGGTSDVEVNEKKDRVTDALNATRAAVEEGIVLGGGCALLRCIPALDSLTPANEDQKIGIEIIKRTLKIPAMTIAKNAGVEGSLIVEKIMQSSSEVGYDAMAGDFVNMVEKGIIDPTKVVRTALLDAAGVASLLTTAEVVVTEIPKEEKDPGMGAMGGMGGGMGGGMF
# Molecular target: recombinant human mitochondrial Hsp60 (human), P10809
# Assay: native gel or EMSA + SEC
# Conditions: remark: other sources report otherwise
binder,measurement,value
B1,stoichiometry N,7
